± gives the standard deviation of the averaged measurements.
Test: total protein half-life in vivo (active degradation + dilution); higher = more stable protein
[1] = E. coli NCM3722 delta-clpP delta-lon delta-hslV, growth: N-lim chemostat, doubling time 6 h
[2] = E. coli NCM3722 delta-clpP, growth: N-lim chemostat, doubling time 6 h
[3] = E. coli NCM3722 delta-hslV, growth: N-lim chemostat, doubling time 6 h
[4] = E. coli NCM3722 delta-lon, growth: N-lim chemostat, doubling time 6 h
[5] = E. coli NCM3722 delta-smpB, growth: N-lim chemostat, doubling time 6 h
[6] = wild type E. coli NCM3722, growth: N-lim chemostat, doubling time 6 h
[7] = wild type E. coli NCM3722, growth: N-lim chemostat, doubling time 12 h
[8] = wild type E. coli NCM3722, growth: C-lim chemostat, doubling time 6 h
[9] = wild type E. coli NCM3722, growth: C-lim chemostat, doubling time 12 h
[10] = wild type E. coli NCM3722, growth: P-lim chemostat, doubling time 6 h
[11] = wild type E. coli NCM3722, growth: P-lim chemostat, doubling time 12 h
[12] = wild type E. coli NCM3722, growth: C-lim chemostat, doubling time 3 h

| Sequence | total protein half-life in vivo [1] [h] | total protein half-life in vivo [2] [h] | total protein half-life in vivo [3] [h] | total protein half-life in vivo [4] [h] | total protein half-life in vivo [5] [h] | total protein half-life in vivo [6] [h] | total protein half-life in vivo [7] [h] | total protein half-life in vivo [8] [h] | total protein half-life in vivo [9] [h] | total protein half-life in vivo [10] [h] | total protein half-life in vivo [11] [h] | total protein half-life in vivo [12] [h] |
| --- | --- | --- | --- | --- | --- | --- | --- | --- | --- | --- | --- | --- |
| MNIVDQQTFRDAMSCMGAAVNIITTDGPAGRAGFTASAVCSVTDTPPTLLVCLNRGASVWPAFNENRTLCVNTLSAGQEPLSNLFGGKTPMEHRFAAARWQTGVTGCPQLEEALVSFDCRISQVVSVGTHDILFCAIEAIHRHTTPYGLVWFDRSYHALMRPAC | 5.375 ± 0.033 | 0.819 ± 0.077 | 0.419 | 0.406 | 0.684 ± 0.19 | 0.452 | 1.16 |  |  |  |  |  |
| MNKAIKVSLYISFVLIICALSKNIMMLNTSDFGRAIKPLIEDIPAFTYDLPLLYKLKGHIDSIDSYEYISSYSYILYTYVLFISIFTEYLDARVLSLFLKVIYIYSLYAIFTSYIKTERYVTLFTFFILAFLMCSSSTLSMFASFYQEQIVIIFLPFLVYSLTCKNNKSMLLLFFSLLIISTAKNQFILTPLIVYSYYIFFDRHKLIIKSVICVVCLLASIFAISYSKGVVELNKYHATYFGSYLYMKNNGYKMPSYVDDKCVGLDAWGNKFDISFGATPTEVGTECFESHKDETFSNALFLLVSKPSTIFKLPFDDGVMSQYKENYFHVYKKLHVIYGESNILTTITNIKDNIFKNIRFISLLLFFIASIFIRNNKIKASLFVVSLFGISQFYVSFFGEGYRDLSKHLFGMYFSFDLCLYITVVFLIYKIIQRNQDNSDVKH | 5.64 | 6.29 ± 1.9 | 5.24 ± 0.26 | 4.87 ± 0.47 | 4.88 ± 0.4 | 5.59 ± 0.57 | 9.92 ± 2.3 | 6.387 ± 0.036 | 12 | 5.62 ± 0.53 | 10.2 ± 1.1 |  |
| MNKDEAGGNWKQFKGKVKEQWGKLTDDDMTIIEGKRDQLVGKIQERYGYQKDQAEKEVVDWETRNEYRW | 6.99 ± 1.3 | 4.33 ± 0.086 | 4.42 | 6.177 ± 0.038 | 3.64 ± 0.25 | 3.59 ± 0.14 | 6.53 ± 1.5 |  | 11 ± 3.5 | 3.72 ± 0.58 | 6.92 ± 0.27 |  |
| MNKEQSADDPSVDLIRVKNMLNSTISMSYPDVVIACIEHKVSLEAFRAIEAALVKHDNNMKDYSLVVD | > 8 |  | > 8 | > 8 |  |  | 10.8 ± 6 |  | 9.95 | 4.21 |  | 2.94 ± 0.043 |
| MNKFLFAAALIVSGLLVGCNQLTQYTITEQEINQSLAKHNNFSKDIGLPGVADAHIVLTNLTSQIGREEPNKVTLTGDANLDMNSLFGSQKATMKLKLKALPVFDKEKGAIFLKEMEVVDATVQPEKMQTVMQTLLPYLNQALRNYFNQQPAYVLREDGSQGEAMAKKLAKGIEVKPGEIVIPFTD [P0AB26] |  |  | 6.63 ± 0.84 | 6.72 ± 0.38 | 6.38 ± 0.15 | 5.75 ± 0.34 | 13.4 ± 0.43 | 5.37 ± 0.43 | 11.9 ± 1.5 | 6.01 ± 0.25 | 12.36 ± 0.048 | 3.55 ± 0.36 |
| MNKILLQCDNLCKRYQEGSVQTDVLHNVSFSVGEGEMMAIVGSSGSGKSTLLHLLGGLDTPTSGDVIFNGQPMSKLSSAAKAELRNQKLGFIYQFHHLLPDFTALENVAMPLLIGKKKPAEINSRALEMLKAVGLDHRANHRPSELSGGERQRVAIARALVNNPRLVLADEPTGNLDARNADSIFQLLGELNRLQGTAFLVVTHDLQLAKRMSRQLEMRDGRLTAELSLMGAE | 6.92 | 6.37 ± 0.67 |  | 6.32 ± 0.21 |  | 5.78 ± 0.77 | 13.1 ± 1.3 | 6.42 ± 0.012 | 10.8 ± 0.94 | 5.48 ± 0.27 |  | 3.22 |
| MNKNMAGILSAAAVLTMLAGCTAYDRTKDQFVQPVVKDVKKGMSRAQVAQIAGKPSSEVSMIHARGTCQTYILGQRDGKAETYFVALDDTGHVINSGYQTCAEYDTDPQAAK [P0ADB1] | 5.54 ± 0.094 | 5.7 ± 0.36 |  |  | 5.74 ± 0.22 |  | 12.3 ± 2.4 | 6.14 ± 0.68 | 10.4 ± 1.6 | 5.73 ± 0.26 | 12.6 ± 0.59 | 3.03 ± 0.22 |
| MNKSRQKELTRWLKQQSVISQRWLNISRLLGFVSGILIIAQAWFMARILQHMIMENIPREALLLPFTLLVLTFVLRAWVVWLRERVGYHAGQHIRFAIRRQVLDRLQQAGPAWIQGKPAGSWATLVLEQIDDMHDYYARYLPQMALAVSVPLLIVVAIFPSNWAAALILLGTAPLIPLFMALVGMGAADANRRNFLALARLSGHFLDRLRGMETLRIFGRGEAEIESIRSASEDFRQRTMEVLRLAFLSSGILEFFTSLSIALVAVYFGFSYLGELDFGHYDTGVTLAAGFLALILAPEFFQPLRDLGTFYHAKAQAVGAADSLKTFMETPLAHPQRGEAELASTDPVTIEAEELFITSPEGKTLAGPLNFTLPAGQRAVLVGRSGSGKSSLLNALSGFLSYQGSLRINGIELRDLSPESWRKHLSWVGQNPQLPAATLRDNVLLARPDASEQELQAALDNAWVSEFLPLLPQGVDTPVGDQAARLSVGQAQRVAVARALLNPCSLLLLDEPAASLDAHSEQRVMEALNAASLRQTTLMVTHQLEDLADWDVIWVMQDGRIIEQGRYAELSVAGGPFATLLAHRQEEI |  | 6.56 ± 0.17 | 5.94 ± 0.14 | 6.1322 ± 0.0016 | 5.95 ± 0.69 | 6.42 ± 0.35 | 12.7 ± 1.1 | 5.88 ± 0.21 |  | 6.33 ± 0.11 | 11.8 ± 0.91 | 3.54 ± 0.42 |
| MNKTAIALLALLASSASLAATPWQKITQPVPGSAQSIGSFSNGCIVGADTLPIQSEHYQVMRTDQRRYFGHPDLVMFIQRLSSQVSNLGMGTVLIGDMGMPAGGRFNGGHASHQTGLDVDIFLQLPKTRWTSAQLLRPQALDLVSRDGKHVVSTLWKPEIFSLIKLAAQDKDVTRIFVNPAIKQQLCLDAGTDRDWLRKVRPWFQHRAHMHVRLRCPADSLECEDQPLPPSGDGCGAELQSWFEPPKPGTTKPEKKTPPPLPPSCQALLDEHVI [P0C0T5] |  |  | 0.831 |  |  |  |  |  |  |  |  | 0.792 |

Source: the supplement of paper PMC11246515
